From paper doi:10.1101/2023.01.11.523539 come the findings set out here.

Test in all cases: two-hybrid
For assay [1], the target named is BD-MLA13^D2A_E17A (α1-helix mutant of MLA13 fused N-terminally to the LexA binding domain) (barley).
Assay [2] deals with BD-MLA13 (wild-type MLA13 fused N-terminally to the LexA binding domain) (barley).
Assay [3] deals with BD-MLA13^F99E (CC domain mutant of MLA13 fused N-terminally to the LexA binding domain) (barley).

As for “AD-AVRA13-V2 (AVRA13-V2 lacking signal peptide, fused N-terminally to the B42 activation domain and 1xHA) (natural protein)”, the lowest dilution of yeast with growth without leucine came out at 0.01 OD600 in assay [1], 0.001 OD600 in assay [2] and 0.01 OD600 in assay [3].
